To fix the notation:
T1: human matriptase-2 ECD protein his tag (human, UniProt Q8IU80 78-811)
T1 construct: also called human MTP-2 ECD; huMTP-2
T1 sequence: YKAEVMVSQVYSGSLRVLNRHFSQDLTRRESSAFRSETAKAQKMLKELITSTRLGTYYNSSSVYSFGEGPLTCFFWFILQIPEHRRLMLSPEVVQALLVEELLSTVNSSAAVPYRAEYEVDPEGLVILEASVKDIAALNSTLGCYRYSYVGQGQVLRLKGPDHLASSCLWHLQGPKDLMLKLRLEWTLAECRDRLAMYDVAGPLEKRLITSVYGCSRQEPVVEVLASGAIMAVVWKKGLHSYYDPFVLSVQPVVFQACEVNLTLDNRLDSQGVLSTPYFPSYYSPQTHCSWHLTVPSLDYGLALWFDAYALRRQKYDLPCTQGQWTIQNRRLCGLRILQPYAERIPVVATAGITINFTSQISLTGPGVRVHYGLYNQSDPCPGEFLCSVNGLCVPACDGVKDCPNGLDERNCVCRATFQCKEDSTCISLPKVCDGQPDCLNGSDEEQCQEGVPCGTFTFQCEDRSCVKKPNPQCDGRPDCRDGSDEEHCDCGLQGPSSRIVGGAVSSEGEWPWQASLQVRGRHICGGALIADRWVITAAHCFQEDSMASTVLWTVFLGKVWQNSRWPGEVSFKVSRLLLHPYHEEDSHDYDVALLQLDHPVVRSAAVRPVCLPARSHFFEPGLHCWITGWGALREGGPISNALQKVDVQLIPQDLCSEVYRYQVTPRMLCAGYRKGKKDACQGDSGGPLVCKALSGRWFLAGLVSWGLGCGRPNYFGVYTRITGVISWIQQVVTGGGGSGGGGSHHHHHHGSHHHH

T2: mouse matriptase-2 ECD protein his tag (mouse, UniProt Q9DBI0 80-811)
T2 construct: aa 80-811 of Q9DBI0 with C-terminal linker and His tag; also called mouse MTP-2 ECD; moMTP-2
T2 sequence: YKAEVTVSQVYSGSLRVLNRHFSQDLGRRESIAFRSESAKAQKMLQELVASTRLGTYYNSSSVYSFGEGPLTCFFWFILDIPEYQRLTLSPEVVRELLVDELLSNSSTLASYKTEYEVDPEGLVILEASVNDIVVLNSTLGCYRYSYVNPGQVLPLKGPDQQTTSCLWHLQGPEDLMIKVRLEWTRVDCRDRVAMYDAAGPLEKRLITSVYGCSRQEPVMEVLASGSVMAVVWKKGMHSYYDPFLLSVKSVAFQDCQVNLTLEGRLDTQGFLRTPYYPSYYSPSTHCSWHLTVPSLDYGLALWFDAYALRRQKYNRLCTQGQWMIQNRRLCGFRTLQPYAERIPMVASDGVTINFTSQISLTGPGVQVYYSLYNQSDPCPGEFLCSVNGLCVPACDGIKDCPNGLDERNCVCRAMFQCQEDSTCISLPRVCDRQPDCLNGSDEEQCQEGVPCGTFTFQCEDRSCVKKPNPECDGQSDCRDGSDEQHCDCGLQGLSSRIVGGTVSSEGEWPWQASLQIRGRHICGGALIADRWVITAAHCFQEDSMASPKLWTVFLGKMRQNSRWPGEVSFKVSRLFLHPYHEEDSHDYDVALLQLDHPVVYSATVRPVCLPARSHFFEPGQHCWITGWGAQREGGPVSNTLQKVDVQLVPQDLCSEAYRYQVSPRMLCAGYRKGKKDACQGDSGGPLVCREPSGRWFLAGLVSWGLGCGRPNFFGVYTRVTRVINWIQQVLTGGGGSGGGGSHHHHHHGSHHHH

T3: rat matriptase-2 ECD protein his tag (rat, UniProt Q9DBI0 80-811 (mouse entry))
T3 construct: aa 80-811 of NCBI XP_006242057.1 with C-terminal linker and His tag; also called rat MTP-2 ECD
T3 chain: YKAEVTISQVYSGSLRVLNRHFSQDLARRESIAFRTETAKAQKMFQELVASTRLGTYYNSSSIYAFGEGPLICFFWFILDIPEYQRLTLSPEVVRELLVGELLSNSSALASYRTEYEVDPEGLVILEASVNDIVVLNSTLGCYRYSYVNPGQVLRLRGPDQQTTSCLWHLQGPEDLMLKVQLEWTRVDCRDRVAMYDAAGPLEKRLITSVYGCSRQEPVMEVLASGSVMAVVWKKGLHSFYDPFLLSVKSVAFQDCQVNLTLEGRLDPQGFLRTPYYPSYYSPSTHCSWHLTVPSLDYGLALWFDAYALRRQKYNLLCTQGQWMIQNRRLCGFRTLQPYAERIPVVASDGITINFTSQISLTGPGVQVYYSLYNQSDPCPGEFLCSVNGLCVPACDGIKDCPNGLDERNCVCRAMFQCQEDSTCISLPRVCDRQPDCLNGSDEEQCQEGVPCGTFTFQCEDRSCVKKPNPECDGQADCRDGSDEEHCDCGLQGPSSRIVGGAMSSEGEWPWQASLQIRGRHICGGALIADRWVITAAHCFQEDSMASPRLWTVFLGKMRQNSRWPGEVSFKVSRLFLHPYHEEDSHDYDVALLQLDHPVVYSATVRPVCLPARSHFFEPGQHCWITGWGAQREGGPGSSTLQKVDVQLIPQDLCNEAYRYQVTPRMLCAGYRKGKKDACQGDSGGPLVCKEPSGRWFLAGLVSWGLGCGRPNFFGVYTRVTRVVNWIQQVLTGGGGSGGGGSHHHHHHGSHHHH

B1: NORI-008 (antibody, human IgG4 S228P, kappa, V domains shown)
VH: QVQLQESGPGLVKPSETLSLTCSVSGGSVSSGRYYWTWIRQPPGKGLEWIGYISNSGNTNYNPSLKSRVTISLDTSKKQFSLSLSAVTAADTAVYYCARGFIYDYWFDPWGQGSLVTVSS
VL: DSQMTQSPSSLSASVGDRVTITCQASQDIDNYLNWYQQRPGKAPKLLIYDASKLETGVPSRFSGSGSGTDFTFTISSLQPEDFATYYCQQYGNLPITFGQGTRLDIKR
notes: human IgG4PE, kappa, in the in vitro assays; a mouse IgG1 format was used in one in vivo study only; also called NORI-008 hulgG4PE; NORI-008 IgG
B2: NORI-013 (antibody, human IgG4 S228P, lambda, V domains shown)
VH: EVQLVESGGGLIQAGRSLRLSCAASGFTFDEHVIYWVRQIPGKGLEWISSISWKSDIIAYADSVKGRFTISRDNAKNALYLQMNSLRAEDTALYYCAREKDGDFYYYYFAMDVWGQGTTVTVSS
VL: QSALTQPPSASGSPGQSVTLSCTGTSSDVGYYNYVSWYLQHPGKAPKLMIYEVSKRPSGVPDRFSGSKSANTASLTVSGLQAEDEADYYCSSYAGSNKVVFGGGTKVTVLG
notes: human IgG4PE, lambda
B3: NORI-014 (antibody, human IgG4 S228P, lambda, V domains shown)
VH: B2 VH with I34M, S52T
VL: B2 VL
notes: human IgG4PE, lambda
B4: NORI-011 (antibody, human IgG4 S228P, lambda)
heavy: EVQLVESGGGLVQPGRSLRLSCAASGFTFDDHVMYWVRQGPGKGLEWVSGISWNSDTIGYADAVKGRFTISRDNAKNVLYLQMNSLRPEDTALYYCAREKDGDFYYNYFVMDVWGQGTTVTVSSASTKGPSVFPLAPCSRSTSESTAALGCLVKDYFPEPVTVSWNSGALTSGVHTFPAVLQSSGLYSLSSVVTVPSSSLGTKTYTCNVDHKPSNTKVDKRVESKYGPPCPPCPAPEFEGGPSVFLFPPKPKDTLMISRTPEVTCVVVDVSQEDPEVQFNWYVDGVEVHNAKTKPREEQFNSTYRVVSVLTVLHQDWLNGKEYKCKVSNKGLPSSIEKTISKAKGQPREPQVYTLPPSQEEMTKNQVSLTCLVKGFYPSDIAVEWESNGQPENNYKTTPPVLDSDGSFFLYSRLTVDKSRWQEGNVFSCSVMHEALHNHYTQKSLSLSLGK
light: QSALTQPPSASGSPGQSVTISCTGTSSDVGFYNFVSWYQQHPDKAPKVMIYEVSKRPSGVPDRFSGSKSGNTASLTVSGLQAEDEADYYCSSYAGSNKVVFGGGTKLTVLGQPKAAPSVTLFPPSSEELQANKATLVCLISDFYPGAVTVAWKADSSPVKAGVETTTPSKQSNNKYAASSYLSLTPEQWKSHRSYSCQVTHEGSTVEKTVAPTECS
notes: human IgG4PE, lambda; NORI-010 with a P124S mutation in the VH domain
B5: NORI-006 (antibody, human IgG4 S228P, kappa, V domains shown)
VH: EVQLVESGGGLIKPGRSLRLSCTGSGFTFGDFGLSWFRQAPGKGLEWISFIRSKPYGGTTDYAASVKGRFTISRDDSKNVAYLQMNSLKTEDTAVYYCARNEILTGYYIFDYWGQGTLVTVSS
VL: DIQMTQSPSSLSASLGDRVTITCQASQDINNYLNWYQVQPGKAPKLLIFDASILETGVPSRFSGSGSGTDFSFTISSLQPEDIATYYCQQYDNLPLTFGGGTKVDFKR
notes: human IgG4PE, kappa
B6: NORI-003 (antibody, human IgG4 S228P, kappa, V domains shown)
VH: EVQLVESGGGLVKPGRSLRLSCTGSGFTFGDFGMSWFRQAPGKGLEWVGFIRSKPYGGTTDYAPSVRGRFSISRDDSKGIVYLQMNSLRTEDTAVYYCSRNEILTGYYIFDYWGQGTLVTVSS
VL: B5 VL with Q27H, N30T, N34I, V38Q, Q39K, K45R, S72T, I83F, D92Y, F106I
notes: human IgG4PE, kappa; NORI-002 with the free cysteine of the VH domain mutated (printed as 'C49C')

Numbering of substitutions follows the chain as printed. Names and notes keep the numbering of the source.

In the first assay the target is T1, human matriptase-2 ECD protein his tag. Kind of assay: SPR (Biacore 8K), huIgG4PE captured on anti-human Fc, MTP-2 ECD as analyte, 1:1 fit. The procedure:
(§1) Off-rate screening was performed by surface plasmon resonance (SPR), using a Biacore 8K system (GE Healthcare). Anti-human Fc mix (˜1000 RU) were immobilised in both active and reference channels in HBS-P+ buffer (GE BR100671) pH 7.4. Anti-MTP-2 hulgG4PE antibodies were then captured for 60 sec at 10 μl/min at 1 μg/ml concentration (approximatively 35 and 50 RU were captured) only on the active channel. MTP-2 ECD protein analytes were then injected (at 100, 25, 6.25, 1.56 and 0 nM concentrations) for 120 sec (association time) at 30 μl/min and dissociation monitored for 600 sec. Multiple cycle kinetics mode was used with all 8 channels being used. Reference and background were subtracted from the sensorgrams for each antibody and data was fitted using a 1:1 interaction model in the Biacore evaluation software. Rmax, ka, kd globally fitted, RI=0.
Usually Kd stands for the concentration at which binding is half-saturated. High values mean a looser complex, low ones a tighter complex. A word on the koff: it is the first-order rate constant of dissociation. Higher therefore signals a short-lived complex. For orientation: kon means the second-order rate constant of association. Higher therefore signals fast association. For the molecule B1, the “Binding Late top conc” value came to 35.8, the equilibrium dissociation constant (Kd) stood at 0.0129 nM, the Stoichiometry amounted to 0.72 and the dissociation rate constant (koff) stood at 1.47e-05 s⁻¹. Moreover, the kon worked out at 1.14e+06 M⁻¹ s⁻¹.

Consider B2, for which the “Binding Late top conc” value stood at 14.6, the Kd was determined as 1.79 nM, the Stoichiometry amounted to 1.05 and the koff amounted to 5.78e-05 s⁻¹. The same molecule displayed a kon of 32200 M⁻¹ s⁻¹.

Turning to B3, the “Binding Late top conc” value worked out at 10.7, the equilibrium dissociation constant (Kd) was 1.71 nM, the Stoichiometry turned out to be 0.9 and the koff worked out at 4.6e-05 s⁻¹. Also, the on-rate constant (kon) was found to be 26900 M⁻¹ s⁻¹.

Another assay addresses T2, mouse matriptase-2 ECD protein his tag. The experiment in a line: SPR, his-tagged MTP-2 ECD protein (Table W). The procedure: as §1
(§2) NORI-011, NORI-008, NORI-003 and NORI-006 were all found to have cross-reactive binding to human, mouse, cyno and rat MTP-2 ECD proteins. […] The true KD value for NORI-008 could not be measured accurately for human or mouse MTP-2 due to a very slow off-rate.
A general note: SPR reads the build-up and loss of mass on a sensor chip optically.
B4 registered a dissociation constant Kd of 9 nM.

In turn, B5 returned a dissociation constant Kd of 27 nM.

In turn, B6 showed an equilibrium dissociation constant (Kd) of 28.9 nM.

The target in another assay is T3, rat matriptase-2 ECD protein his tag. The experiment in a line: SPR, his-tagged MTP-2 ECD protein (Table W). The procedure:
as §1, §2
Consider B4, for which the Kd amounted to 3.01 nM.

The molecule B1 yielded an equilibrium dissociation constant (Kd) of 7.64 nM.

B5: the dissociation constant (Kd) is 15.2 nM.

As for B6, the equilibrium dissociation constant (Kd) came out at 19.2 nM.

These data come from patent US20230025129A1 (KYMAB, published 2023).
